Data from PMC5670239, “Structural basis for mutually exclusive co-transcriptional nuclear cap-binding complexes with either NELF-E or ARS2” (Nature Communications, 2017).

T1: CBC (Homo sapiens, UniProt P52298)
T1 sequence (P52298 1-156): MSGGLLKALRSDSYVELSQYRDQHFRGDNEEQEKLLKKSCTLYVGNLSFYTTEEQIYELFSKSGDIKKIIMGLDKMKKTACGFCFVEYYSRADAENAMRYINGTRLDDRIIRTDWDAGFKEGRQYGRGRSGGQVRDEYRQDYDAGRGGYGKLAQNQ
T1 sequence (Q09161 20-790 partner): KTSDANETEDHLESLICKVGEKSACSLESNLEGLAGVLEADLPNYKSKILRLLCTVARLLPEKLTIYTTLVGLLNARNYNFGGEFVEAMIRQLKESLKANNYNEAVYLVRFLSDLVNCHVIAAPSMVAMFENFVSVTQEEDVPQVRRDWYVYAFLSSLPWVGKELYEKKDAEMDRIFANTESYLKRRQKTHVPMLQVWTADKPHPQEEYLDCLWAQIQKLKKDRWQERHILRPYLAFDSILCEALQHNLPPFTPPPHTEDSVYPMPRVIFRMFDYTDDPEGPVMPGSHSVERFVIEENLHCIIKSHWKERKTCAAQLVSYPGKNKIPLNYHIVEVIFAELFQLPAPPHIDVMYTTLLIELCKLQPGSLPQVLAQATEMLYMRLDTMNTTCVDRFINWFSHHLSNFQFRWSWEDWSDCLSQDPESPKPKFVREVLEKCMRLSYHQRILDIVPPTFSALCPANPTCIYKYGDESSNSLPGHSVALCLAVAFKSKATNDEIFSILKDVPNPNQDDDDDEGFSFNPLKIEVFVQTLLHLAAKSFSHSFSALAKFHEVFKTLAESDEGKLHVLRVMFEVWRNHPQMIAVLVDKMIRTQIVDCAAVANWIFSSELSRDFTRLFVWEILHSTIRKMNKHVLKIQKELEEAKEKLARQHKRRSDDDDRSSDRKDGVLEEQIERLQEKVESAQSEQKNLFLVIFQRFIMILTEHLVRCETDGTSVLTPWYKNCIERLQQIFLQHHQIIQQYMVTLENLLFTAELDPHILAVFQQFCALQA

B1: PHAX 103–264: human PHAX residues 103–264 (protein, UniProt Q9H814 103-264, looked up, fragment)
chain: SQKPPVAGGKKINNIWGAVLQEQNQDAVATELGILGMEGTIDRSRQSETYNYLLAKKLRKESQEHTKDLDKELDEYMHGGKKMGSKEEENGQGHLKRKRPVKDRLGNRPEMNYKGRYEITAEDSQEKVADEISFRLQEPKKDLIARVVRIIGNKKAIELLME
B2: ARS2^147–871: human ARS2 lacking the putatively unstructured N-terminal region (protein, UniProt Q9BXP5 147-871, looked up, fragment)
chain: PVMKTFKEFLLSLDDSVDETEAVKRYNDYKLDFRRQQMQDFFLAHKDEEWFRSKYHPDEVGKRRQEARGALQNRLRVFLSLMETGWFDNLLLDIDKADAIVKMLDAAVIKMEGGTENDLRILEQEEEEEQAGKPGEPSKKEEGRAGAGLGDGERKTNDKDEKKEDGKQAENDSSNDDKTKKSEGDGDKEEKKEDSEKEAKKSSKKRNRKHSGDDSFDEGSVSESESESESGQAEEEKEEAEEALKEKEKPKEEEWEKPKDAAGLECKPRPLHKTCSLFMRNIAPNISRAEIISLCKRYPGFMRVALSEPQPERRFFRRGWVTFDRSVNIKEICWNLQNIRLRECELSPGVNRDLTRRVRNINGITQHKQIVRNDIKLAAKLIHTLDDRTQLWASEPGTPPLPTSLPSQNPILKNITDYLIEEVSAEEEELLGSSGGAPPEEPPKEGNPAEINVERDEKLIKVLDKLLLYLRIVHSLDYYNTCEYPNEDEMPNRCGIIHVRGPMPPNRISHGEVLEWQKTFEEKLTPLLSVRESLSEEEAQKMGRKDPEQEVEKFVTSNTQELGKDKWLCPLSGKKFKGPEFVRKHIFNKHAEKIEEVKKEVAFFNNFLTDAKRPALPEIKPAQPPGPAQILPPGLTPGLPYPHQTPQGLMPYGQPRPPILGYGAGAVRPAVPTGGPPYPHAPYGAGRGNYDAFRGQGGYPGKPRNRMVRGDPRAIVEYRDLDAPD

Key:
CBC [1] = molecular target: T1, CBC; test: Size exclusion chromatography (gel filtration) co-elution with CBC, without m^7GTP; format: binding; settings: fractions analysed by SDS-PAGE, absence of m^7GTP
Protocol: (§1) Fig. 1 The interaction of CBC with ARS2 is enhanced in the presence of m^7GTP. a Schematic diagram of the domain structure of ARS2 based on ref. [26]. b Gel filtration chromatogram and Coomassie-stained SDS-PAGE of CBC-ARS2 in the presence and absence of m^7GTP. Purified recombinant CBC and ARS2^147–871 were mixed with (orange) or without (blue) 500 µM m^7GTP and subjected to gel filtration. Their elution profiles were overlaid (left) and single fractions analysed by SDS-PAGE (middle and right). Purified recombinant CBC and C-terminally truncated ARS2^147–845 were mixed with 500 µM m^7GTP and analysed in a similar way (bottom left). c ITC data and curve fit to derive the affinity of different ARS2 constructs for CBC. CBC or m^7GTP-CBC in the sample cell was titrated by ARS2. […] K D values and standard deviation represent the average from at least two independent experiments. d Sequence alignment of the C-terminus of ARS2. Conserved residues are highlighted in red. Figure made with ESPript[54]
Fig. 2 The interaction of CBC with NELF-E is enhanced in the presence of m^7GTP. a Schematic diagram of the domain structure of NELF-E. b Gel filtration chromatogram and Coomassie-stained SDS-PAGE of CBC-NELF-E in the presence and absence of m^7GTP. […] Their elution profiles were overlaid (left) and single fractions analysed by SDS-PAGE (middle and right). […]

CBC [2] = molecular target: T1, CBC; test: Size exclusion chromatography (gel filtration) co-elution with CBC, with m^7GTP; format: binding; settings: gel filtration with 500 µM m^7GTP, fractions analysed by SDS-PAGE
Protocol: as §1
Fig. 2 The interaction of CBC with NELF-E is enhanced in the presence of m^7GTP. a Schematic diagram of the domain structure of NELF-E. b Gel filtration chromatogram and Coomassie-stained SDS-PAGE of CBC-NELF-E in the presence and absence of m^7GTP. Purified recombinant CBC and NELF-E were mixed with (orange) or without (green) 500 µM m^7GTP and subjected to gel filtration. Their elution profiles were overlaid (left) and single fractions analysed by SDS-PAGE (middle and right). Purified recombinant CBC and NELF-E^244–360 were mixed together with 500 µM m^7GTP and similarly analysed (bottom left). c ITC data and curve fit to derive the affinity of different NELF-E constructs for CBC. CBC or m^7GTP-CBC in the sample cell was titrated by NELF-E^244–380 or NELF-E^360–380. The data were presented as described in the caption to Fig. 1c. d Sequence alignment of the C-terminus of NELF-E. Conserved residues are highlighted in red. Figure made with ESPript[54]

[3] = system: CBC–NELF–E complex immobilised on m^7GTP-sepharose; test: Displacement pull down on m^7GTP-sepharose, CBC–NELF–E; format: binding, human; settings: increasing amounts added, 1 h at 4 °C, flow through and elution by SDS-PAGE
Protocol: Fig. 4 Incompatibility of ARS2-PHAX and NELF-E binding to CBC. a, b Competition on m^7GTP-sepharose. a In separate experiments, different amounts of ARS2^147–871 were added to preformed CBC–NELF–E complex immobilised on m^7GTP-sepharose. […] The fluorophore FAM is represented with a star. Note that different constructs of NELF-E and ARS2 were used in c, d, and e compared to f, g, and h and are therefore represented by slightly different shapes. Error bars show the SD of three experiments
CBC-NELF-E^1–380 or CBC-PHAX^1–394 were immobilised on m^7GTP-sepharose and incubated for 1 h at 4 °C with different amounts of ARS2^147–871 or NELF-E^1–380 in 20 mM HEPES, pH 7.8, 120 mM NaCl, 2 mM tris(2-carboxyethyl)phosphine, respectively. The flow through, as well as the elution from the beads after extensive washing, was analysed by SDS-PAGE followed by Coomassie staining.

Molecule	Interaction with CBC by SEC (CBC [1])	Interaction with CBC by SEC in the presence of m^7GTP (CBC [2])	Displacement of NELF-E from immobilised m^7GTP–CBC–NELF–E complex [3]
B1	No interaction via SEC	–	–
B2	–	only co-eluted in the presence of the cap analogue m^7GTP	could displace NELF-E
